{
  "source": "patent US20210395318A1",
  "about": "(Molecular Partners, published 2021)",
  "binders": {"B1": {"name": "SMA014 (designed binder)", "chain": "MRGSHHHHHHGSDLGEKLLVAALYGQDDEVRELLKAGADVNAKDQWGLTPLHKAALQGHLEIVEVLLKAGADVNAKDERGHTPLHWAARFGHLEIVEVLLKAGADVNAQDQKGYTPADLAALWGHEDIAEVLQKAAGSPTPTPTTPTPTPTTPTPTPTGSDLGKKLLQAARAGQLDEVRELLKAGADVNAKDTWGFTPLHIAAESGHLEIVEVLLKAGADVNAKDVQGRTPLHIAAHSGHLEIVEVLLKAGADVNAKDFRGWTPLHLAAWSGHLEIVEILLKAGADVNAQDKSGKTPADLAARAGHQDIAEVLQKAA"}, "B2": {"name": "SMA095 (designed binder)", "chain": "MRGSHHHHHHGSDLGKKLLEAARAGQDDEVRELLKAGADVNAKDYFSHTPLHLAARNGHLKIVEVLLKAGADVNAKDFAGKTPLHLAAADGHLEIVEVLLKAGADVNAQDIFGKTPADIAADAGHEDIAEVLQKAAGSPTPTPTTPTPTPTTPTPTPTGSDLGEKLLVAALYGQDDEVRELLKAGADVNAKDQWGLTPLHKAALQGHLEIVEVLLKAGADVNAKDERGHTPLHWAARFGHLEIVEVLLKAGADVNAQDQKGYTPADLAALWGHEDIAEVLQKAAGSPTPTPTTPTPTPTTPTPTPTGSDLGKKLLQAARAGQLDEVRELLKAGADVNAKDTWGFTPLHIAAESGHLEIVEVLLKAGADVNAKDVQGRTPLHIAAHSGHLEIVEVLLKAGADVNAKDFRGWTPLHLAAWSGHLEIVEILLKAGADVNAQDKSGKTPADLAARAGHQDIAEVLQKAAGSPTPTPTTPTPTPTTPTPTPTGSDLGKKLLEAARAGQDDEVRELLKAGADVNAKDYFSHTPLHLAARNGHLKIVEVLLKAGADVNAKDFAGKTPLHLAAADGHLEIVEVLLKAGADVNAQDIFGKTPADIAADAGHEDIAEVLQKAA"}, "B3": {"name": "SMA091 (designed binder)", "chain": "MRGSHHHHHHGSDLGKKLLEAARAGQDDEVRELLKAGADVNAKDYFSHTPLHLAARNGHLKIVEVLLKAGADVNAKDFAGKTPLHLAAADGHLEIVEVLLKAGADVNAQDIFGKTPADIAADAGHEDIAEVLQKAAGSPTPTPTTPTPTPTTPTPTPTGSDLGEKLLVAALYGQDDEVRELLKAGADVNAKDQWGLTPLHKAALQGHLEIVEVLLKAGADVNAKDERGHTPLHWAARFGHLEIVEVLLKAGADVNAQDQKGYTPADLAALWGHEDIAEVLQKAAGSPTPTPTTPTPTPTTPTPTPTGSDLGKKLLQAARAGQLDEVRELLKAGADVNAKDTWGFTPLHIAAESGHLEIVEVLLKAGADVNAKDVQGRTPLHIAAHSGHLEIVEVLLKAGADVNAKDFRGWTPLHLAAWSGHLEIVEILLKAGADVNAQDKSGKTPADLAARAGHQDIAEVLQKAAGSPTPTPTTPTPTPTTPTPTPTGSDLGKKLLQAARAGQLDEVRELLKAGADVNAKDTWGFTPLHIAAESGHLEIVEVLLKAGADVNAKDVQGRTPLHIAAHSGHLEIVEVLLKAGADVNAKDFRGWTPLHLAAWSGHLEIVEILLKAGADVNAQDKSGKTPADLAARAGHQDIAEVLQKAA"}, "B4": {"name": "AS579 (designed binder)", "chain": "MRGSHHHHHHGSDLGKKLLEAARAGQDDEVRELLKAGADVNAKDYFSHTPLHLAARNGHLKIVEVLLKAGADVNAKDFAGKTPLHLAAADGHLEIVEVLLKAGADVNAQDIFGKTPADIAADAGHEDIAEVLQKAAGSPTPTPTTPTPTPTTPTPTPTGSDLGKKLLEAARAGQDDEVRELLKAGADVNAKDYFSHTPLHLAARNGHLKIVEVLLKAGADVNAKDFAGKTPLHLAAADGHLEIVEVLLKAGADVNAQDIFGKTPADIAADAGHEDIAEVLQKAAGSPTPTPTTPTPTPTTPTPTPTGSDLGEKLLVAALYGQDDEVRELLKAGADVNAKDQWGLTPLHKAALQGHLEIVEVLLKAGADVNAKDERGHTPLHWAARFGHLEIVEVLLKAGADVNAQDQKGYTPADLAALWGHEDIAEVLQKAAGSPTPTPTTPTPTPTTPTPTPTGSDLGKKLLQAARAGQLDEVRELLKAGADVNAKDTWGFTPLHIAAESGHLEIVEVLLKAGADVNAKDVQGRTPLHIAAHSGHLEIVEVLLKAGADVNAKDFRGWTPLHLAAWSGHLEIVEILLKAGADVNAQDKSGKTPADLAARAGHQDIAEVLQKAAGSPTPTPTTPTPTPTTPTPTPTGSDLGKKLLQAARAGQLDEVRELLKAGADVNAKDTWGFTPLHIAAESGHLEIVEVLLKAGADVNAKDVQGRTPLHIAAHSGHLEIVEVLLKAGADVNAKDFRGWTPLHLAAWSGHLEIVEILLKAGADVNAQDKSGKTPADLAARAGHQDIAEVLQKAA"}},
  "data": [
    {"molecular_target": "T1, human CD40 on primary human B cells or human monocyte-derived dendritic cells (human, UniProt P25942 21-277)", "T1 sequence (P25942 21-277 H80K/K81H limits assumed)": "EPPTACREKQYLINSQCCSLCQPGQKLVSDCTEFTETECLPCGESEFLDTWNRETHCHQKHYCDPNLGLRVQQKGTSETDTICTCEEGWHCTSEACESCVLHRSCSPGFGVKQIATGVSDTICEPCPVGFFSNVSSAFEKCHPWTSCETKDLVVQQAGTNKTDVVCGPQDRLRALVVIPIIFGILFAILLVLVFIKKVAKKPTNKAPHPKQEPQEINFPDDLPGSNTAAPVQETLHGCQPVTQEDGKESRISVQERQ", "test": "cell-based or functional assay", "units": {"EC50, % CD86, human B cells with FAP-CHO cells, w HSA": "nM", "EC50, % CD86, human B cells with FAP-CHO cells, w/o HSA": "nM", "EC50, MFI CD86, human B cells with FAP-CHO cells, w HSA": "nM", "EC50, MFI CD86, human B cells with FAP-CHO cells, w/o HSA": "nM"}, "values": [
      {"binder": "B1", "EC50, % CD86, human B cells with FAP-CHO cells, w HSA": 6.15, "EC50, % CD86, human B cells with FAP-CHO cells, w/o HSA": 4.21, "EC50, MFI CD86, human B cells with FAP-CHO cells, w HSA": 7.7, "EC50, MFI CD86, human B cells with FAP-CHO cells, w/o HSA": 8.46},
      {"binder": "B2", "EC50, % CD86, human B cells with FAP-CHO cells, w/o HSA": 89.8, "EC50, MFI CD86, human B cells with FAP-CHO cells, w/o HSA": 288},
      {"binder": "B3", "EC50, % CD86, human B cells with FAP-CHO cells, w HSA": 2.98, "EC50, % CD86, human B cells with FAP-CHO cells, w/o HSA": 0.76, "EC50, MFI CD86, human B cells with FAP-CHO cells, w HSA": 8.05, "EC50, MFI CD86, human B cells with FAP-CHO cells, w/o HSA": 3.93},
      {"binder": "B4", "EC50, % CD86, human B cells with FAP-CHO cells, w HSA": 10.2, "EC50, % CD86, human B cells with FAP-CHO cells, w/o HSA": 2.27, "EC50, MFI CD86, human B cells with FAP-CHO cells, w HSA": 23.1, "EC50, MFI CD86, human B cells with FAP-CHO cells, w/o HSA": 10}
    ]},
    {"molecular_target": "T1, human CD40 on primary human B cells or …", "test": "cell-based or functional assay", "remark": "another data set of the same source", "units": {"Efficacy [MFI at highest dose], MFI CD86, human B cells with WT-CHO cells (no FAP), w HSA": "MFI", "Efficacy [MFI at highest dose], MFI CD86, human B cells with WT-CHO cells (no FAP), w/o HSA": "MFI", "Efficacy at highest dose, % CD86, human B cells with WT-CHO cells (no FAP), w HSA": "%", "Efficacy at highest dose, % CD86, human B cells with WT-CHO cells (no FAP), w/o HSA": "%"}, "values": [
      {"binder": "B1", "Efficacy [MFI at highest dose], MFI CD86, human B cells with WT-CHO cells (no FAP), w HSA": 310, "Efficacy [MFI at highest dose], MFI CD86, human B cells with WT-CHO cells (no FAP), w/o HSA": 294, "Efficacy at highest dose, % CD86, human B cells with WT-CHO cells (no FAP), w HSA": 13.3, "Efficacy at highest dose, % CD86, human B cells with WT-CHO cells (no FAP), w/o HSA": 13.2},
      {"binder": "B2", "Efficacy [MFI at highest dose], MFI CD86, human B cells with WT-CHO cells (no FAP), w HSA": 306, "Efficacy [MFI at highest dose], MFI CD86, human B cells with WT-CHO cells (no FAP), w/o HSA": 299, "Efficacy at highest dose, % CD86, human B cells with WT-CHO cells (no FAP), w HSA": 13.7, "Efficacy at highest dose, % CD86, human B cells with WT-CHO cells (no FAP), w/o HSA": 12.5},
      {"binder": "B3", "Efficacy [MFI at highest dose], MFI CD86, human B cells with WT-CHO cells (no FAP), w HSA": 296, "Efficacy [MFI at highest dose], MFI CD86, human B cells with WT-CHO cells (no FAP), w/o HSA": 290, "Efficacy at highest dose, % CD86, human B cells with WT-CHO cells (no FAP), w HSA": 43.1, "Efficacy at highest dose, % CD86, human B cells with WT-CHO cells (no FAP), w/o HSA": 47.8},
      {"binder": "B4", "Efficacy [MFI at highest dose], MFI CD86, human B cells with WT-CHO cells (no FAP), w HSA": 242, "Efficacy [MFI at highest dose], MFI CD86, human B cells with WT-CHO cells (no FAP), w/o HSA": 252, "Efficacy at highest dose, % CD86, human B cells with WT-CHO cells (no FAP), w HSA": 40.1, "Efficacy at highest dose, % CD86, human B cells with WT-CHO cells (no FAP), w/o HSA": 42}
    ]},
    {"molecular_target": "T1, human CD40 on primary human B cells or …", "test": "cell-based or functional assay", "remark": "another data set of the same source", "units": {"Efficacy [MFI at highest dose], MFI CD86, human B cells with FAP-CHO cells, w HSA": "MFI", "Efficacy [MFI at highest dose], MFI CD86, human B cells with FAP-CHO cells, w/o HSA": "MFI", "Efficacy at highest dose, % CD86, human B cells with FAP-CHO cells, w HSA": "%", "Efficacy at highest dose, % CD86, human B cells with FAP-CHO cells, w/o HSA": "%"}, "values": [
      {"binder": "B1", "Efficacy [MFI at highest dose], MFI CD86, human B cells with FAP-CHO cells, w HSA": 2190, "Efficacy [MFI at highest dose], MFI CD86, human B cells with FAP-CHO cells, w/o HSA": 2440, "Efficacy at highest dose, % CD86, human B cells with FAP-CHO cells, w HSA": 47, "Efficacy at highest dose, % CD86, human B cells with FAP-CHO cells, w/o HSA": 48.4},
      {"binder": "B2", "Efficacy [MFI at highest dose], MFI CD86, human B cells with FAP-CHO cells, w HSA": 232, "Efficacy [MFI at highest dose], MFI CD86, human B cells with FAP-CHO cells, w/o HSA": 773, "Efficacy at highest dose, % CD86, human B cells with FAP-CHO cells, w/o HSA": 28.7},
      {"binder": "B3", "Efficacy [MFI at highest dose], MFI CD86, human B cells with FAP-CHO cells, w HSA": 2980, "Efficacy [MFI at highest dose], MFI CD86, human B cells with FAP-CHO cells, w/o HSA": 6230, "Efficacy at highest dose, % CD86, human B cells with FAP-CHO cells, w HSA": 75.6, "Efficacy at highest dose, % CD86, human B cells with FAP-CHO cells, w/o HSA": 78.2},
      {"binder": "B4", "Efficacy [MFI at highest dose], MFI CD86, human B cells with FAP-CHO cells, w HSA": 1780, "Efficacy [MFI at highest dose], MFI CD86, human B cells with FAP-CHO cells, w/o HSA": 4860, "Efficacy at highest dose, % CD86, human B cells with FAP-CHO cells, w HSA": 71.9, "Efficacy at highest dose, % CD86, human B cells with FAP-CHO cells, w/o HSA": 83}
    ]}
  ]
}
